In the supplement of paper PMC10126150:
± gives the standard deviation of the averaged measurements.

system: ATP; test: switch fluorescence ratio, 500 uM ATP over buffer (Cy3 cluster intensity, sum of 5 cycles each) (fold (ratio)); higher = stronger signal-on switching upon ATP binding; sequences stand for … in TCGTCGGCAGCGTCAGATGTGTATAAGAGACAGTTTTTTTTTTTTTTTTTTTTTTTTT…TC; conditions: aptamer strand: ATP DNA aptamer (quencher-CACCTGGGGGAGTATTGCGGAGGAAGG + anchor), 100 nM annealed; ATP concentration: 500 uM
Method in brief: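 For every switch-domain sequence, the fluorescence ratio is the mean of per-cluster values, each being summed target-cycle Cy3 intensity over summed buffer-cycle Cy3 intensity. Clusters outside 100-1000 RFU were excluded. On a modified Illumina MiSeq flow-cell, the Cy3-labelled switching-strand clusters were annealed to 100 nM quencher-labelled ATP aptamer, imaged in selection buffer and then after 15 min with 500 uM ATP at 22 °C. Five such cycles were run, with NaOH stripping and re-annealing between them.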
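Also: ATP exposure 15 min at 22 °C before imaging.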

Sequence	switch fluorescence ratio
GGCTGGGTGG	1.01 ± 0.053
GGCTGGGTTT	1.02 ± 0.026
GGCTGGTATA	0.987 ± 0.031
GGCTTAGACG	0.959 ± 0.063
GGCTTAGAGT	0.971 ± 0.011
GGCTTAGCAT	1.02 ± 0.037
GGCTTCGGGA	1.01 ± 0.054
GGCTTGCGTA	0.9512 ± 0.0029
GGCTTGCTTT	1.01 ± 0.021
GGCTTGGTTA	1.02 ± 0.015
GGCTTTAGTA	1.02 ± 0.027
GGCTTTATGG	0.977 ± 0.024
GGCTTTGTAG	0.9956 ± 0.0081
GGCTTTTGCT	0.9978 ± 0.0038
GGCTTTTGTA	0.972 ± 0.019
GGGAAAAAGC	0.993 ± 0.04
GGGAAAAGAT	0.978 ± 0.042
GGGAAAATAT	0.999 ± 0.063
GGGAAAATTC	1.06 ± 0.089
GGGAAACATG	0.979 ± 0.028
GGGAAACTGA	1.04 ± 0.0027
GGGAAAGAGG	0.991 ± 0.048
GGGAAAGGCG	0.983 ± 0.042
GGGAAAGGGA	0.978 ± 0.022
GGGAAATAGA	1.004 ± 0.0088

Sequence	switch fluorescence ratio
GGGAAATCAG	0.9838 ± 0.0076
GGGAAATGCG	0.9983 ± 0.0053
GGGAAATTTT	0.987 ± 0.021
GGGAACCAAG	0.997 ± 0.026
GGGAACGAGG	1.02 ± 0.019
GGGAACGGGT	1 ± 0.035
GGGAACGTTA	1.05 ± 0.035
GGGAAGAAGT	1.011 ± 0.0084
GGGAAGACGC	0.978 ± 0.025
GGGAAGAGTT	0.994 ± 0.012
GGGAAGATTT	0.992 ± 0.036
GGGAAGCGTT	0.997 ± 0.012
GGGAAGCTTA	1.008 ± 0.0042
GGGAAGGGTT	0.998 ± 0.029
GGGAATAACG	0.972 ± 0.058
GGGAATATTT	0.995 ± 0.0097
GGGAATCCGG	1.02 ± 0.013
GGGAATCGTC	0.987 ± 0.04
GGGAATGCGG	0.99 ± 0.03
GGGAATGCTT	1.016 ± 0.0054
GGGAATGGAG	0.976 ± 0.029
GGGAATTAGG	1 ± 0.021
GGGACAGGGG	1.21 ± 0.35
GGGACATGTA	0.98 ± 0.022
GGGACCAGAT	1.01 ± 0.033

Sequence	switch fluorescence ratio
GGGACCGGTG	1.03 ± 0.02
GGGACGAGGG	1.03 ± 0.035
GGGACGGGTA	1.008 ± 0.0015
GGGACGTCGT	1.04 ± 0.042
GGGAGAACG	0.98 ± 0.017
GGGAGAGAGG	0.984 ± 0.011
GGGAGAGGGA	0.978 ± 0.021
GGGAGAGGTT	0.987 ± 0.032
GGGAGAGTTT	1.01 ± 0.026
GGGAGCCGAG	1 ± 0.03
GGGAGGAGGC	0.889 ± 0.04
GGGAGGAGTT	0.9689 ± 0.0067
GGGAGGCAAT	1.46 ± 0.38
GGGAGGGATA	0.995 ± 0.02
GGGAGGGGAA	1.1 ± 0.15
GGGAGGTGGT	1.08 ± 0.17
GGGAGTAAAT	1.01 ± 0.037
GGGAGTAGCC	1.01 ± 0.059
GGGAGTATCT	0.9998 ± 0.0028
GGGAGTATGT	0.977 ± 0.054
GGGAGTGGGA	1.01 ± 0.011
GGGAGTGTGC	1.016 ± 0.0053
GGGAGTTCTA	0.991 ± 0.023
GGGATAAAGT	0.988 ± 0.022
GGGATAAATA	0.9996 ± 0.0023

Sequence	switch fluorescence ratio
GGGATAAGCT	1.02 ± 0.022
GGGATACAGC	1.03 ± 0.059
GGGATACGGT	1.0248 ± 0.00074
GGGATAGACT	0.995 ± 0.035
GGGATAGCAC	1.09 ± 0.13
GGGATAGGAG	1 ± 0.03
GGGATATAGG	0.9937 ± 0.0021
GGGATATGGT	0.986 ± 0.019
GGGATATTGG	0.992 ± 0.013
GGGATCAGAA	0.999 ± 0.074
GGGATCAGCG	0.988 ± 0.041
GGGATCGGTG	0.995 ± 0.016
GGGATCTGCG	0.95 ± 0.017
GGGATGAGGG	0.97 ± 0.037
GGGATGGACC	1 ± 0.018
GGGATGTTTG	0.987 ± 0.017
GGGATTAGCG	0.957 ± 0.037
GGGATTAGGA	0.995 ± 0.052
GGGATTAGGG	1.02 ± 0.043
GGGATTATTC	0.9725 ± 0.0041
GGGATTGGAG	0.995 ± 0.016
GGGATTGGCT	1.01 ± 0.015
GGGATTGGGC	0.992 ± 0.022
GGGATTGGGG	1 ± 0.012
GGGATTGGTT	0.999 ± 0.047
